According to patent US20080145840A1:

How the values were obtained:
[1] = system: Nc1ncnc2c1ncn2[C@@H]1O[C@H](COP(=O)(O)OP(=O)(O)OP(=O)(O)O)[C@@H](O)[C@H]1O; assay: purified protein, by the assay type
C[C@H](N)C(=O)O = assay: purified protein, by the assay type

Question: E. coli MurC (Escherichia coli K-12) was tested. Which Km ([1]; other: ITC, pH 8.0) did it give?
Answer: 61 µM

Question: And the Km ([1]; other: Phosphate detection)?
Answer: 101 µM

Question: What about the Km (C[C@H](N)C(=O)O; other: ITC, pH 8.0) of the same substance?
Answer: 44 µM

Question: What about the Km (C[C@H](N)C(=O)O; other: Phosphate detection) of the same substance?
Answer: 56 µM
